Key:
[1] = PET scanning, tumour to organ/background ratios; details: Balb/c nude, mouse, in vivo, iv, 1 ug, total radioactivity, PET images 1 h PI, ±SEM, n = 3
Description: (§1) All animal experiments were performed with approval from the Peter MacCallum animal ethics committee. Six- to eight-week-old Balb/c nude mice (Animal Resources Centre, Western Australia) were implanted subcutaneously on the right flank with three million AR42J cells (sourced from ATCC). Once the tumours reached a volume >150 mm^3, the animals (n = 3) were injected intravenously with 23–28 MBq [^68Ga(THP-TATE)] (containing 1 μg of THP-TATE). For blocking studies, animals (n = 3) were coinjected with Tyr^3-octreotate peptide (400 μg). For [^68Ga(DOTATATE)], the animals (n = 3) were injected with 8 MBq of the tracer (containing 1 μg of DOTATATE). At 1 h, the animals were anaesthetised and imaged on a Philips MOSAIC small animal PET scanner. The images were reconstructed using a 3D RAMLA algorithm and tracer uptake determined as described previously. On completion of the scan, animals were euthanised and tissues harvested, weighed and radioactivity counted using a gamma counter (Biomedex). Quantitation of PET images was performed using in-house software (MARVn 3.31). Regions of interest were drawn around tissues of interest and uptake ratio calculated as the maximum pixel intensity in the tumour divided by the average uptake in a mediastinal background region, liver or kidneys, as appropriate.

Ex vivo biodistribution = details: Balb/c nude, mouse, in vivo, iv, 1 ug, total radioactivity, 1 h PI, ex vivo gamma counting, n = 3, ±SEM
Description: as §1

[2] = test system: SSTR2-positive AR42J tumours; test: Ex vivo biodistribution; details: 1 h PI, i.v., ex vivo gamma counting; n = 3, ±SEM
Description: as §1

Compound `C[C@@H](O)[C@H](NC(=O)[C@@H]1CSSC[C@H](NC(=O)[C@@H](Cc2ccccc2)NC(=O)CN2CCN(CC(=O)O)CCN(CC(=O)O)CCN(CC(=O)O)CC2)C(=O)N[C@@H](Cc2ccc(O)cc2)C(=O)N[C@H](Cc2c[nH]c3ccccc23)C(=O)N[C@@H](CCCCN)C(=O)N[C@@H]([C@@H](C)O)C(=O)N1)C(=O)O` [[^68Ga(DOTATATE)], metal not drawn] has a tissue to tissue ratio at 1 h ([1]; Tumour to kidney ratio, maximum tumour pixel intensity / average organ uptake) of 5.7 ± 0.2, a tissue to tissue ratio at 1 h ([1]; Tumour to liver ratio) of 27.2 ± 3.9 and a tissue uptake at 1 h (Ex vivo biodistribution; AR42J tumour uptake) of 14.4 ± 0.8 %ID/g. The tissue uptake at 1 h (Ex vivo biodistribution; kidney retention) was 5.6 ± 0.5 %ID/g and the blood retention [2] was 0.3 ± 0.1 %ID g^−1.

From publication PMC4600075, “Rapid kit-based ^68Ga-labelling and PET imaging with THP-Tyr^3-octreotate: a preliminary comparison with DOTA-Tyr^3-octreotate” (EJNMMI Research, 2015)
